For four sequences, Kd results are on record in the Immune Epitope Database (IEDB).

One assay addresses HLA-C*06:02. As to the kind of experiment: IEDB peptide-MHC binding, purified MHC/direct/fluorescence; filed as Kd, often an IC50 or EC50 that approximates it; ≥ and ≤ were set here for values at or beyond the usual limits of such assays.
Another assay deals with HLA-A*24:02. The assay can be described thus: IEDB peptide-MHC binding, purified MHC/competitive/fluorescence; filed as Kd, often an IC50 or EC50 that approximates it; ≥ and ≤ were set here for values at or beyond the usual limits of such assays.
For the next assay, the target named is HLA-A*01:01. The assay can be described thus: IEDB peptide-MHC binding, purified MHC/direct/fluorescence; filed as Kd, often an IC50 or EC50 that approximates it; ≥ and ≤ were set here for values at or beyond the usual limits of such assays.
The target in a further assay is HLA-A*02:12. The assay is described as above. The settings on record: source organism: Vibrio cholerae V52.
Another assay concerns the target HLA-A*02:19. The assay is described as above. The settings on record: source organism: Vibrio cholerae V52.
The target of another assay is HLA-A*11:01. The description is as above. Conditions: source organism: Vibrio cholerae.
The target of the next assay is HLA-A*23:01. The description is as above. Conditions: source organism: Vibrio cholerae V52.
The next assay has as its target HLA-A*24:03. Described as above. The settings on record: source organism: Vibrio cholerae V52.
Another assay deals with HLA-A*29:02. The assay is described as above. The settings on record: source organism: Vibrio cholerae V52.
In assay [1] the target is HLA-A*30:01. The description is as above. The settings on record: source organism: Vibrio cholerae V52.
Another assay concerns the target HLA-A*69:01. Described as above.
For another assay, the target named is HLA-B*15:01. The description is as above.
The target of another assay is HLA-B*15:09. The description is as above. Conditions: source organism: Vibrio cholerae V52.
The target in a further assay is HLA-B*18:01. The assay is described as above.
Another assay deals with HLA-B*27:05. The assay is described as above.
The target in another assay is HLA-B*38:01. The assay is described as above.
For the next assay, the target named is HLA-B*40:01. The assay is described as above.
A further assay concerns the target HLA-B*44:02. The description is as above. Conditions: source organism: Vibrio cholerae V52.
Another assay deals with HLA-B*46:01. The assay is described as above.
The next assay deals with HLA-B*48:01. The description is as above.
A further assay addresses HLA-B*51:01. The description is as above. The settings on record: source organism: Vibrio cholerae V52.
Another assay has as its target HLA-B*57:01. The description is as above.
The target of the next assay is HLA-B*58:01. The description is as above.
Assay [2] concerns the target HLA-A*02:01. The assay can be described thus: IEDB peptide-MHC binding, purified MHC/competitive/fluorescence; filed as Kd, often an IC50 or EC50 that approximates it; ≥ and ≤ were set here for values at or beyond the usual limits of such assays. The settings on record: source organism: Vibrio cholerae MO10.
For a further assay, the target named is HLA-A*02:03. The description is as above.
The next assay deals with HLA-A*03:01. The description is as above. Conditions: source organism: Vibrio cholerae MO10.
Another assay has as its target HLA-A*31:01. Described as above. Conditions: source organism: Vibrio cholerae MO10.
In assay [3] the target is HLA-B*08:01. Described as above. Conditions: source organism: Vibrio cholerae MO10.
In assay [4] the target is HLA-B*15:17. The description is as above. The settings on record: source organism: Vibrio cholerae MO10.
Assay [5] deals with HLA-B*39:01. Described as above. The settings on record: source organism: Vibrio cholerae MO10.
Another assay addresses HLA-C*14:02. The assay can be described thus: IEDB peptide-MHC binding, purified MHC/direct/fluorescence; filed as Kd, often an IC50 or EC50 that approximates it; ≥ and ≤ were set here for values at or beyond the usual limits of such assays. Conditions: source organism: Giardia lamblia ATCC 50803.
The next assay has as its target HLA-C*15:02. Described as above. Conditions: source organism: Giardia lamblia ATCC 50803.
Assay [6] addresses HLA-A*02:01. The description is as above. The settings on record: source organism: Camelpox virus M-96.
Another assay has as its target HLA-A*26:01. Described as above. Conditions: source organism: Variola virus.
A further assay addresses HLA-A*68:02. The assay is described as above. Conditions: source organism: Camelpox virus M-96.
In a further assay the target is HLA-B*07:02. Described as above. The settings on record: source organism: Camelpox virus M-96.
In assay [7] the target is HLA-B*08:01. The description is as above. Conditions: source organism: Variola virus.
For a further assay, the target named is HLA-B*08:02. Described as above. Conditions: source organism: Variola virus.
In assay [8] the target is HLA-B*15:17. Described as above. The settings on record: source organism: Camelpox virus M-96.
Assay [9] has as its target HLA-B*39:01. The description is as above. The settings on record: source organism: Camelpox virus M-96.
In assay [10] the target is HLA-A*30:01. The assay can be described thus: IEDB peptide-MHC binding, purified MHC/competitive/fluorescence; filed as Kd, often an IC50 or EC50 that approximates it; ≥ and ≤ were set here for values at or beyond the usual limits of such assays. The settings on record: source organism: Vaccinia virus WR.
For a further assay, the target named is HLA-B*35:01. The description is as above. Conditions: source organism: Vaccinia virus WR.
Setting [11] is: source organism: Bacillus anthracis str. A0488.
Where [12] appears, read: source organism: Vibrio cholerae.
[13] abbreviates: source organism: Vibrio cholerae V52.
Setting [14] is: source organism: Giardia lamblia ATCC 50803.
Where [15] appears, read: source organism: Camelpox virus M-96.

As a reminder, the Kd is the free concentration of one partner at which half of the binding sites on the other are occupied at equilibrium, for simple one-to-one binding. Read a high Kd as lower affinity. As for IYPFHVQKI, the Kd with HLA-C*06:02 (setting [11]) is 0.816 µM; with HLA-A*24:02 (setting [11]), at most 0.0001 µM.
Turning to EVNAHIHTM, the Kd with HLA-A*01:01 (setting [12]), with HLA-A*02:12, with HLA-A*02:19, with HLA-A*11:01, with HLA-A*23:01 and with HLA-A*24:03 was at least 20 µM each time. The Kd with HLA-A*29:02 is at least 20 µM; with HLA-A*30:01 [1] it was at least 20 µM; with HLA-A*69:01 (setting [12]), at most 0.001 µM; in the assay with HLA-B*15:01 (setting [13]) it was at least 20 µM; in the assay with HLA-B*15:09, at least 20 µM; with HLA-B*18:01 (setting [13]) it was 1.84 µM. In addition, the Kd in the assay with HLA-B*27:05 (setting [12]), in the assay with HLA-B*38:01 (setting [13]), with HLA-B*40:01 (setting [12]), with HLA-B*44:02, with HLA-B*46:01 (setting [12]) and in the assay with HLA-B*48:01 (setting [12]) was at least 20 µM each time. Also, the Kd with HLA-B*51:01, in the assay with HLA-B*57:01 (setting [12]), with HLA-B*58:01 (setting [12]), with HLA-A*02:01 [2], in the assay with HLA-A*02:03 (source organism: Vibrio cholerae MO10) and with HLA-A*03:01 was at least 20 µM throughout. Moreover, the Kd was at least 20 µM in the assay with HLA-A*31:01, at least 20 µM with HLA-B*08:01 [3], at least 20 µM in the assay with HLA-B*15:17 [4] and 1.33 µM with HLA-B*39:01 [5].
As to RYYLSFFHI, the Kd with HLA-C*06:02 (setting [14]) was at least 20 µM; with HLA-C*14:02 it was 0.03 µM; with HLA-C*15:02, at least 20 µM; in the assay with HLA-A*24:02 (setting [14]) it was 0.0014 µM.
On to TESDAIRTL, for which the dissociation constant (Kd) in the assay with HLA-A*01:01 (setting [15]), with HLA-A*02:01 [6], in the assay with HLA-A*26:01, with HLA-A*68:02, in the assay with HLA-A*69:01 (setting [15]) and with HLA-B*07:02 was at least 20 µM in each case. For the same sequence, the Kd in the assay with HLA-B*08:01 [7] was at least 20 µM; in the assay with HLA-B*08:02 it was at least 20 µM; with HLA-B*15:01 (setting [15]), at least 20 µM; with HLA-B*15:17 [8], at least 20 µM; with HLA-B*18:01 (setting [15]), 0.017 µM; with HLA-B*27:05 (setting [15]) it was at least 20 µM. The Kd was 3.77 µM in the assay with HLA-B*38:01 (source organism: Variola virus); 0.118 µM with HLA-B*39:01 [9]; 0.0225 µM with HLA-B*40:01 (setting [15]); at least 20 µM in the assay with HLA-B*46:01 (setting [15]); at least 20 µM in the assay with HLA-B*48:01 (setting [15]); at least 20 µM in the assay with HLA-B*57:01 (setting [15]). Further, the Kd was at least 20 µM in the assay with HLA-B*58:01 (setting [15]), at least 20 µM with HLA-A*02:03 (source organism: Vaccinia virus WR), at least 20 µM with HLA-A*30:01 [10] and 3.71 µM with HLA-B*35:01.
